Kd data for one molecule are collected here from publication PMC9568614 (2022).

One may read the Kd as the constant that tells how readily two partners part at equilibrium.

The target of experiment [1] is T1, recombinant human FcRn (FcRn alpha-chain with C-terminal BirA 10x-Histidine tag, with beta-2-microglobulin) (human, UniProt P55899 24-297; P61769 21-119). In words: SPR; pH 7.4. Background: Surface plasmon resonance follows binding to a sensor surface in real time, without labels.
Experiment [2] addresses T1, recombinant human FcRn (FcRn …). The experiment in a line: SPR; pH 6.0.

B1: Fc-MST-HN (IgG1 Fc fragment with M252Y, S254T, T256E, H433K, N434F) (domain or fragment)
chain: DKTHTCPPCPAPELLGGPSVFLFPPKPKDTLYITREPEVTCVVVDVSHEDPEVKFNWYVDGVEVHNAKTKPREEQYNSTYRVVSVLTVLHQDWLNGKEYKCKVSNKALPAPIEKTISKAKGQPREPQVYTLPPSRDELTKNQVSLTCLVKGFYPSDIAVEWESNGQPENNYKTTPPVLDSDGSFFLYSKLTVDKSRWQQGNVFSCSVMHEALKFHYTQKSLSLSP
As to B1, the values for the Kd in experiment [1] and in experiment [2] were 1220 nM and 33 nM, respectively.
